From US20210253718A1 (MODMAB THERAPEUTICS, published 2021)

T1: FZD3 cysteine-rich domain (CRD), MYC-tagged and GPI-anchored on CHO cells (human, UniProt Q9NPG1 24-150, GPI anchor)
T1 construct: domain: cysteine-rich domain (CRD); also called FZD3 CRD; CHO-myc-FZDGPI; not shown: MYC tag and GPI anchor signal
T1 sequence (looked up): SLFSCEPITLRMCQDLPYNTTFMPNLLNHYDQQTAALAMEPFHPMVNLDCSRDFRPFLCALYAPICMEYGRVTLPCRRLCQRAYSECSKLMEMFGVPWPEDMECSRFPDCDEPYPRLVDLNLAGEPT

T2: FZD4 cysteine-rich domain (CRD), MYC-tagged and GPI-anchored on CHO cells (human, UniProt Q9ULV1 42-167, GPI anchor)
T2 construct: also called FZD4 CRD; CHO-myc-FZDGPI; not shown: MYC tag and GPI anchor signal
T2 sequence: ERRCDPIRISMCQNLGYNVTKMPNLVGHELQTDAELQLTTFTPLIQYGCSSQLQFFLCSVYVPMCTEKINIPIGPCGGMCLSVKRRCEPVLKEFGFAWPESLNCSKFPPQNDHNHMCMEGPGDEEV

T3: FZD5 cysteine-rich domain (CRD), MYC-tagged and GPI-anchored on CHO cells (human, UniProt Q13467 29-156, GPI anchor)
T3 construct: also called FZD5 CRD; CHO-myc-FZDGPI; not shown: MYC tag and GPI anchor signal
T3 sequence: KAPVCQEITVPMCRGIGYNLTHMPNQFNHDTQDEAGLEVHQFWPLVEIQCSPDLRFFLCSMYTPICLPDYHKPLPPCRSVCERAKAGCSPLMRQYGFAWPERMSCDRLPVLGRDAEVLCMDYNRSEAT

T4: FZD6 cysteine-rich domain (CRD), MYC-tagged and GPI-anchored on CHO cells (human, UniProt O60353 20-146, GPI anchor)
T4 construct: also called FZD6 CRD; CHO-myc-FZDGPI; not shown: MYC tag and GPI anchor signal
T4 sequence: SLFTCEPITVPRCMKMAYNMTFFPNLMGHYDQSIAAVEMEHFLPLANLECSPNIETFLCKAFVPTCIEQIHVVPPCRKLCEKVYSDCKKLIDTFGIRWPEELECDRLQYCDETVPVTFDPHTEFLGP

T5: FZD8 cysteine-rich domain (CRD), MYC-tagged and GPI-anchored on CHO cells (human, UniProt Q498S8 31-155 (rat entry), GPI anchor)
T5 construct: also called FZD8 CRD; CHO-myc-FZDGPI; not shown: MYC tag and GPI anchor signal
T5 sequence: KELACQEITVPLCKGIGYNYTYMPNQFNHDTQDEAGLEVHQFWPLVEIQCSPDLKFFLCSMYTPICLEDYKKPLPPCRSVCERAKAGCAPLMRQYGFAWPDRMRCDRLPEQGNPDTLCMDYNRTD

T6: FZD9 cysteine-rich domain (CRD), MYC-tagged and GPI-anchored on CHO cells (human, UniProt O00144 35-161, GPI anchor)
T6 construct: also called FZD9 CRD; CHO-myc-FZDGPI; not shown: MYC tag and GPI anchor signal
T6 sequence: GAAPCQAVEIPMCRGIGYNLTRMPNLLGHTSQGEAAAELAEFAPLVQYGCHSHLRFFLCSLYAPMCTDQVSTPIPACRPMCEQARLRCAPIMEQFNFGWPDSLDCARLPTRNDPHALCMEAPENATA

T7: FZD10 cysteine-rich domain (CRD), MYC-tagged and GPI-anchored on CHO cells (human, UniProt Q9ULW2 30-156, GPI anchor)
T7 construct: also called FZD10 CRD; CHO-myc-FZDGPI; not shown: MYC tag and GPI anchor signal
T7 sequence: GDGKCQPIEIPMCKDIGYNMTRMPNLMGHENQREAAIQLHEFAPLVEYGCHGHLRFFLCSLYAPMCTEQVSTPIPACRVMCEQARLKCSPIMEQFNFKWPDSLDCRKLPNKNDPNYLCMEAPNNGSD


What was measured:
[1] = biological target: T8, FZD1 cysteine-rich domain (CRD), MYC-tagged and GPI-anchored on CHO cells (human); assay: flow cytometry, CHO-CRD cells;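 note: flow cytometry of Fab binding to CHO cells overexpressing a Frizzled CRD, with binding defined as median fluorescence over twice that of CHO cells lacking any Frizzled CRD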
Protocol: (§1) Binding was measured via flow cytometry analysis of CHO cells overexpressing CRD of FZD1, FZD2, FZD3, FZD4, FZD5, FZD6, FZD7, FZD8, FZD9 or FZD10. Median fluorescence values are shown.

[2] = biological target: T9, FZD2 cysteine-rich domain (CRD), MYC-tagged and GPI-anchored on CHO cells (human, UniProt Q14332 35-161); assay: flow cytometry, CHO-CRD cells;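 note: flow cytometry of Fab binding to CHO cells overexpressing a Frizzled CRD, with binding defined as median fluorescence over twice that of CHO cells lacking any Frizzled CRD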
Protocol: as §1

[3] = biological target: T1, FZD3 cysteine-rich domain (CRD), …; assay: flow cytometry, CHO-CRD cells;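 note: flow cytometry of Fab binding to CHO cells overexpressing a Frizzled CRD, with binding defined as median fluorescence over twice that of CHO cells lacking any Frizzled CRD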
Protocol: as §1

[4] = biological target: T2, FZD4 cysteine-rich domain (CRD), …; assay: flow cytometry, CHO-CRD cells;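 note: flow cytometry of Fab binding to CHO cells overexpressing a Frizzled CRD, with binding defined as median fluorescence over twice that of CHO cells lacking any Frizzled CRD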
Protocol: as §1

[5] = biological target: T3, FZD5 cysteine-rich domain (CRD), …; assay: flow cytometry, CHO-CRD cells
Protocol: as §1

[6] = biological target: T4, FZD6 cysteine-rich domain (CRD), …; assay: flow cytometry, CHO-CRD cells
Protocol: as §1

[7] = biological target: T10, FZD7 cysteine-rich domain (CRD), MYC-tagged and GPI-anchored on CHO cells (human, UniProt O75084 45-169); assay: flow cytometry, CHO-CRD cells
Protocol: as §1

[8] = biological target: T5, FZD8 cysteine-rich domain (CRD), …; assay: flow cytometry, CHO-CRD cells
Protocol: as §1

[9] = biological target: T6, FZD9 cysteine-rich domain (CRD), …; assay: flow cytometry, CHO-CRD cells
Protocol: as §1

[10] = biological target: T7, FZD10 cysteine-rich domain (CRD), …; assay: flow cytometry, CHO-CRD cells
Protocol: as §1

[11] = biological target: T8, FZD1 cysteine-rich domain (CRD), …; assay: flow cytometry on CHO-GPI cells over-expressing the Frizzled CRD;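 note: binding of recombinant anti-Frizzled Fabs to the cells, read as fold mean fluorescence intensity above secondary-antibody-only background and normalized to control CHO-GPI cells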
Description: (§2) Specificity profiling of the Frizzled profiler Fabs by flow cytometry in CHO-GPI cells over-expressing CRDs of FZD1, FZD2, FZD3, FZD4, FZD5, FZD6, FZD7, FZD8, FZD9 or FZD10. Numerical values indicate a fold-increase in mean fluorescence intensity of the reacting Fab over the background (secondary antibody alone) normalized to the control (C, CHO-GPI).
(§3) To characterize the binding specificity of these Fabs on cells, a panel of 10 CHO cell lines was generated, each expressing the CRD domain of a different myc-tagged Frizzled family member anchored at the plasma membrane through a GPI anchor (CHO-myc-FZDGPI).

[12] = biological target: T9, FZD2 cysteine-rich domain (CRD), …; assay: as above
Description: as §2, §3

[13] = biological target: T1, FZD3 cysteine-rich domain (CRD), …; assay: as above
Description: as §2, §3

[14] = biological target: T2, FZD4 cysteine-rich domain (CRD), …; assay: as above
Description: as §2, §3

[15] = biological target: T3, FZD5 cysteine-rich domain (CRD), …; assay: as above
Description: as §2, §3

[16] = biological target: T4, FZD6 cysteine-rich domain (CRD), …; assay: as above
Description: as §2, §3

[17] = biological target: T10, FZD7 cysteine-rich domain (CRD), …; assay: as above
Description: as §2, §3

[18] = biological target: T5, FZD8 cysteine-rich domain (CRD), …; assay: as above
Description: as §2, §3

[19] = biological target: T6, FZD9 cysteine-rich domain (CRD), …; assay: as above
Description: as §2, §3

[20] = biological target: T7, FZD10 cysteine-rich domain (CRD), …; assay: as above
Description: as §2, §3

[21] = biological target: T1, FZD3 cysteine-rich domain (CRD), …; assay: immunofluorescence, CHO-CRD cells
[22] = biological target: T2, FZD4 cysteine-rich domain (CRD), …; assay: immunofluorescence, CHO-CRD cells
[23] = biological target: T4, FZD6 cysteine-rich domain (CRD), …; assay: immunofluorescence, CHO-CRD cells
[24] = biological target: T5, FZD8 cysteine-rich domain (CRD), …; assay: immunofluorescence, CHO-CRD cells
[25] = biological target: T6, FZD9 cysteine-rich domain (CRD), …; assay: immunofluorescence, CHO-CRD cells
[26] = biological target: T7, FZD10 cysteine-rich domain (CRD), …; assay: immunofluorescence, CHO-CRD cells

median fluorescence [1]	median fluorescence [2]	median fluorescence [3]	median fluorescence [4]	median fluorescence [5]	median fluorescence [6]	median fluorescence [7]	median fluorescence [8]	median fluorescence [9]	median fluorescence [10]	binding result [11]	binding result [12]	binding result [13]	binding result [14]	fold-increase in mean fluorescence intensity over background (secondary antibody alone), normalized to control CHO-GPI [15] [fold]	binding result [16]	binding result [17]	fold-increase in mean fluorescence intensity over background (secondary antibody alone), normalized to control CHO-GPI [18] [fold]	binding result [19]	binding result [20]	Binder	also measured
3.52	4.26	3.96	3.79	43.7	2.64	2.41	20.5	2.79	2.48	no binding (tested: 200 nM)	no binding (tested: 200 nM)	no binding (tested: 200 nM)	no binding (tested: 200 nM)	19.2	no binding (tested: 200 nM)	no binding (tested: 200 nM)	14.4	no binding (tested: 200 nM)	no binding (tested: 200 nM)	Fab-2919 (Fab, V domains shown, Fab) VH: EVQLVESGGGLVQPGGSLRLSCAASGFNISYSYIHWVRQAPGKGLEWVASIYSSSGSTSYADSVKGRFTISADTSKNTAYLQMNSLRAEDTAVYYCARGAIDYWGQGTLVTVSS VL: DIQMTQSPSSLSASVGDRVTITCRASQSVSSAVAWYQQKPGKAPKLLIYSASSLYSGVPSRFSGSRSGTDFTLTISSLQPEDFATYYCQQWYSSGHVLITFGQGTKVEIK	
4.53	4.37	3.59	4.1	29.4	2.67	4.37	6.98	2.94	2.48	no binding (tested: 200 nM)	no binding (tested: 200 nM)	no binding (tested: 200 nM)	no binding (tested: 200 nM)	14	no binding (tested: 200 nM)	no binding (tested: 200 nM)	6.8	no binding (tested: 200 nM)	no binding (tested: 200 nM)	Fab-2921 (Fab, V domains shown, Fab) VH: EVQLVESGGGLVQPGGSLRLSCAASGFNISYYYIHWVRQAPGKGLEWVASIYPSSGSTSYADSVKGRFTISADTSKNTAYLQMNSLRAEDTAVYYCARGAMDYWGQGTLVTVSS VL: DIQMTQSPSSLSASVGDRVTITCRASQSVSSAVAWYQQKPGKAPKLLIYSASSLYSGVPSRFSGSRSGTDFTLTISSLQPEDFATYYCQQWYAGSLITFGQGTKVEIK	
		3.22	4.57	25.5	2.89		5.52	3.13	3.08											Fab-2908 (Fab, V domains shown, Fab; also called Fv-2908) VH: EVQLVESGGGLVQPGGSLRLSCAASGFNFSSSSIHWVRQAPGKGLEWVAYIYPSYSYTYYADSVKGRFTISADTSKNTAYLQMNSLRAEDTAVYYCARAYYGHFHAMDYWGQGTLVTVSS VL: DIQMTQSPSSLSASVGDRVTITCRASQSVSSAVAWYQQKPGKAPKLLIYSASSLYSGVPSRFSGSRSGTDFTLTISSLQPEDFATYYCQQSSYSLITFGQGTKVEIK	binding result [21]: no binding; binding result [22]: no binding; binding result [23]: no binding; binding result [24]: no binding; binding result [25]: no binding; binding result [26]: no binding
